In the nanobody polyreactivity screen of Harvey et al. (2022):

Test: yeast display, Sf9 membrane polyspecificity reagent, FACS + sequencing; frameworks hold sequencing errors
How it was run: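 Nanobodies from a synthetic yeast display library (Saccharomyces cerevisiae BJ5465), induced 36–48 hours with galactose, were stained 1 hour at 4 °C with 10% biotinylated, detergent-solubilized Sf9 membrane reagent, enriched on streptavidin microbeads, then FACS-sorted. Anti-HA (expression) and streptavidin (reagent binding) fluorescence set low and high (top ~1%) gates. Polyreactivity labels come from the gate of origin. Genes were colony-PCR amplified, MiSeq 2 × 250 sequenced and filtered by CDR length.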

Sequence	polyreactivity (PSR sort gate)
QVQLQERGGGLVQAGGSLRMSCAASGSIFVSVTMGWYRQAPGKERELVASIGRGSTTNHADSVKGLFTISRDNAKNIVYLLMNSLKPEDTAVYYCAALESYGKYHGYWGQGTQVTVSS	low polyreactivity
QVQLVESGGGLVQAGGSLRLSCAASGRTFVTYAMGWYRPAPGKERELVAAITGSGGRTYYADSVKGRFTISRDNAKLTVYLQMNRLKPEDTAVYYCAKDHPSGRQYDYWGQGTQVTVSS	high polyreactivity
QVQLVESGAGLVHAGGSLRLSCAAYGRTFLAYAKGWYRQAHGKERELVAAISKSGGRTYYADSVKGRFTISRDYAKHTVYLQMNSLKPEDTAVYYCAADKQAYVTDDYWGQGTQVTVSS	high polyreactivity
QVQLVESGGGLVQAGGSLRLSCAASGRTFAVNVMGWYIPAPGKERELVAAIDFDDGITYYADSVKGRFTISRDNAKNTVYLQMNSLKPEDTAVYYCAAEFVYFGSDYYYWGQGTQVTVSS	high polyreactivity
QVQLVESGGRLVQAGGSLRLSCAASGRIFGAYAMGWYRQAPGKERELVAAINSGGSTFYADSVKGRFTISRDNAKNTVYLQMNRLKPEDTAVYYCAKRSYDYRRYSWGQGTQVTVSS	high polyreactivity
QVQLVESGGGLVQAGGSLRLSCAASGSTFPYYGMGWYRQAPGKERELVAAINSGGSTYYADSVKGRFTISRDNAKNTVYLQMNSLKPEDTAVYYCNAAYPEWYAYDYWGQGTQVTVSS	low polyreactivity
QVQLVESGGCLVQAGGSLRLSCADSGSTFVIYYMGWYRQAPGKERELVAAISYSGGSTYYADSVKGRFTISRDNAKNTVYLQMNSLKPEDTAVYYGYDYWGQGTQVTVSS	low polyreactivity
QVQLVESVGGLVQAGGSLRLSCAASGRIFDSYTMGWYRQAPGKERELVAAISRGGGSTYYADSVKGRFTISRDNAKYTVYLQMNSLKPEDTAVYYCAASSYLNSRFKFDYWGQGTQVTVSS	low polyreactivity
QVQLVESGGGLVQAGGSLRLSCAASGFIFWWYTMGWYRQAPGKETELVAAITGSGGSTYYADSVKGRFTISRDNAKNTVYLQMNSLKPEDTAVYYCNAVSAYKWQYDYWGQGTQVTVSS	high polyreactivity
QDQLVESGGGLVQAGGSLRLSCAASGSTFYFNAMGWYRPAPGKEREFVAVIDGSGGFTYYADSVKGRFTISRDNAKNTVYLQLNILKPEDTAVYYCNADLVYNTFFYSGGDEYDYWGQGTQVNVSS	high polyreactivity
QVQLVESGVGLVQAGGSLSLSCAASGITFPYVMGWYRQAPGKERELVAAISRTGTSTYYADSVKGRFTSSRDNAKNNVYLEMNTLKPEDTAVYYCAARTQTQVYPAYGYWGQGTQVTVSS	high polyreactivity
QVQLVESGGGLVQAGGSLRLSCAASGSTFQSNGMGWYRQAPGKERELVAAITSTDASTSYADSVKGRFTISRDNAKNTVYLQMNSLKPEDTAVYYCAADFPVASGAELDYWGQGTQVTVSS	low polyreactivity
QVQLVESGGRLVQAGGSLRLSCAASGFTFNYNAMGWYRQAPGKERELVAAISRSGGSTYYADSVMGRFTISRDNAKNTFYLQMNSLKPEDTAVYYFAAVRDIGKYGYWGQGTQVTVSS	high polyreactivity
QVQLQESGGGLVQAGGSLRLSCAASGTISYGSVMGWYRQAPGKERELDAGIGYGSTTNYADSVKGRFTISRDNAKNTVYLQMNSLKPDDTAVYYCARDLYYVYSFAPYRYEYWGHGTQVTVSS	low polyreactivity
QVQLVESGGGLVQAGGSLRLSCAASGITIVWYAMGWYRLAPGKEREFVASISWRGGTTYYADSVKGRFTISRDNAKNTVDLQMNSLKPEDTAVYYCAARTRWWYRYDYWGQGTQVTVSS	high polyreactivity
QVQLVESGGGLVQAGGSLRLSCAASGRIFAQNAMGWYRQAPGKERELVAAISWGGGGTYYADSVKGRFTISRDNAKNTVYLQMNSLKPEDTAVYYCAADSPGFGAWDRYEYWGQGTQVTVSW	low polyreactivity
QVQLVESGGGLVQAGGSLRLSCAASGGTISRYGMGWYRPAPRKERELVAAITRSGSTNYADSVKERFTISRDNAKYTVYLQMNSLKPEDTAVYYGATDKRGRIGGTFDYWGQGTQVTVSS	low polyreactivity
QGQLVESGGGLVQAGGCLRLSCAASGGTFDYNAMGWYRQAPGKERELVAAITSGASTYYADSVKGRFTISRDNAKNTVYLQMNSLKPQDTAVYYCAKGPTPGYDYWGQGTQVTVSS	low polyreactivity
QVQLVESGGGLVQAGGSLRLSCAASGRIFYYYTMGWYRQAPGKEREVVAAITKGDDDTSYADSVKGRFTISRDNAKNTVYVQMNSLKPEDTAVYYCAVEIVLVPFVVGYDYWGQGTQVTVSS	low polyreactivity
QVQLVESAAGLVQAVGSHRLSCAASRLTFGFYAMGSDRQARGKESELVAAIDFSDGSTYYADSVKGRFTISRDNAKKTVYLQMNSLKPEDTAVYYCAADDPGLGYWSLTWYDYWGQGTQVTVSS	high polyreactivity
QVQLVESGGGLVQAGGSLRLSCAASGRIFNYYAMGWYRQAPGKERELVAAINWSGVRTYYADSVKGRFTISRDNAKNTVYLQMNSLKPEDTEVYYCARDAGAAYGYYSWGQGTQVTVSS	high polyreactivity

Sequence	polyreactivity (PSR sort gate)
QVQLVESVGGLVQAGGSLRLSCAASGGIFNTYAMGWYRQAPGKEREFVAANSRRGGGTYYADSVKGRFTISRDNAKNTVYLQMNSLKPEDTAVYYCNADVKRGSRGYGSDHWGQGTQVTVSS	high polyreactivity
QVQLVESGGGLVQAGGSLRLSCAASGLTFKKYAMGWYRQAPGKERELVAAISRGGSTNYADSVKGRFTISRDNAKNTVYLQMNSLKPDDTAVYYCAAEGYWHVYADYYLEDYYWGQGTQVTVSS	high polyreactivity
QVQLVESGGGLVQAGGSLRLSCAASGSIVGYNAMGWYRQAPGKEWEFVAAISWSGGRTYYADSVKGRFTISRDNAKNTVYLQMNILKPEDTAVYYSAADVFFYVYEAYLLYYWGQRTQVTVSS	low polyreactivity
QVQLVESGGGLVQAGGSLRLSCAASGFTFFYNAMGWYRQAPGKEREFVAAISGRGGTTYYADSVKGRFTISRDNAKNTVYLQMNSLKPEDTAVYYCAAYYRGYAYNYWGQGTQVTLSS	high polyreactivity
QVQIVESGGGLVQAGGSLRLSCSASGNIFYKYAMGWFRQAPGKERELVAAITWRVVRTYYADSVKGRFTISRDNAKNTVYLQMNSLKPEDTAVYYCAALSRQSGDYWGQGTQLTVSS	high polyreactivity
QVQLVESGGGLVQAGGSLRLSCAASGRIFVYYTMGWYRQAPGKERELVAAITGSGGSTYYADSVKGRFTISRDNAKNTVYLQMNSLKPEDTAVYSCAVYDSYRKFKYWGQGTQVTVSS	high polyreactivity
QVQLEESGGGLVQAGGRLRLSCAASGIIFEYYAMGGYRQAPGTERELVAAIFSGGSTYYADSVKGRFTISGDNAKNNVYLQMNSLKPEDTAVYYCAADYFAWGQGTQVTVSS	high polyreactivity
QVQLVESGGGLVQAGGSLRLSCAASGSIFSGYVMGWSRQAPGKERELVAAISGSGGSTYYADSVKGRFTISRDNAKNTVYLQMNSLNPEDTAVYYCNKGLSRSYWWVDYWGQGTQVTVSS	low polyreactivity
QVQLVESGGGLVQAGRSLRLSCAASGRIFCYYAMGWYRQAPGKERELVAAITRGGSTYYADSVKGRFTISRDNAKNTVYLQMNSLKPEDTAVYYCAATISGLVKYENDYWGQGTQVTVSS	low polyreactivity
QVQLVESGGGLVQAGGSLRLSCAASGSTFRLYAMGWYRQAPGKERELVAAISTRGSSTYYADSVKGRFTISRDNAKNTVYLQMNSLKPEDTAVYYCAADAYFIYSRYWYDYWGQGTQVTVSS	high polyreactivity
QVQLVESGGGLVQAGGRLRLSCAASGAIFDRNVMGWYSQAPGQERELVAAISGSGGRTYYADSVKGRFTISRDNAKNTVYLQMNSLKPEDTAVYYCAARAFRVVPGGDYWGQGTQVTVSS	high polyreactivity
QVQLVESGGGLVQAGGSLRLSCAASGFIGIYAMGWYRQAPGKERELVAAITTSGGRTYYADSVKGRFTISRDNAKNTVYLQMNSLKPEDTAVYYCAADYQAYTAEDKVIVWYDYWGQGTQVTVSS	low polyreactivity
QDQHVESGGGLVQAGGSLRLSCAASGLTYRYNAMGWYRPAPGKERELVAAITSSGGSTYYADSVKGRFTISRDNAKNTVYLQMNSLKPEDTAVYYCAAATNTQESVPMYYWGQGTQVTVSS	low polyreactivity
QVQLVESGGGLVQAGGSLRLSCAASGRTFTFKAMGWYRQAPGKERELVAAMTSTGSTSYADSVKGRFTISRDNAKNTVYLQMNSLKPEDTAVYYCAKGYVIPYVHHVRPYGGEYLGQGTQVTVSS	low polyreactivity
QVQLVESGGGLVQAGGSLRLSCAASGRTFYFYAMGWYRQAPGKERELVAAITSRVGRTYYADSVKGRFTISRDNAKNTVYLQMNSLKPEDTAVYYCAAEGVYRMGYWGQGTQVTVSS	high polyreactivity
QVQLVESGGGLVQAGGSLRLSCAASGFISGVNTMGWYSQAPGKERELVAAISSGGRTHYADSVKGRFTISRDNAKNTVYLQMNSLKPEDTAVYYCATRVRSTTRYYYWGLGTQVTVSS	high polyreactivity
QVQLVESGGGLVQAGGSLRLSCAASGSTFVNNVMGWYRQAPGKERELVAAISGRGGNTYYADSVKGRFTISRDNAKNTVYLQMNSLKPEDTAVYYCAPYSWGWSLWTYDYWGQGTQVTVSS	high polyreactivity
QVQLVESGGGLVQAGGRLRLSCAASGSIFNYYARGWYRQAPGKERELVAAIPTSGGNPYYADSVKGRFTISRDNAKNTVKLQMNSLKPEDTALYNCAADYWASGGEYDYWGQGTQVTVSS	low polyreactivity
QVQLVESGGGLVQAGGSLRLSCAASGSIVDFYAMGWYRQSPGTERELVAAIDDIDDSTYYADSVKGRFTISRDNAKNTVYLQMNSLKPEDTAVYYCAAELRPGYRSSYGLIYDYWGQGTQVTVSS	low polyreactivity
QVQLVESGGGLVQAGCSLRLSCAASGRTFGGYALGWYRQAPGKERELVAAISRGGNTYYADSVKGRFTISRDNAKNTVYLQMNSLKPEDTAVYYCNVARGNPVPPSEYWGQGTQVTVSS	low polyreactivity
